Experimental data from patent US20240317847A1 (Bayer, published 2024).
One block for each binder: values may come before it.

Columns and labels:
[1] = target: T1, human IL-11 (Invigate, e.g., lot #C121021-19) (human, UniProt P20809 22-199); test: SPR, Biacore 8K; antibody captured on anti-human IgG Fc chip, IL-11 analyte 0-50 nM, 1:1 fit
T1 construct: Bought protein; also called hIL-11; hIL11
T1 sequence: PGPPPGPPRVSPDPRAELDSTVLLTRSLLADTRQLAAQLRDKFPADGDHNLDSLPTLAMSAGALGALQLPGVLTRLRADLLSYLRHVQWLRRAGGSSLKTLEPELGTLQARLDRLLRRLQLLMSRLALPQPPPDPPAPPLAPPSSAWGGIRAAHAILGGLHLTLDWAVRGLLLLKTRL

[2] = target: T2, murine IL-11 (Invigate, e.g., lot #C210819-09) (mouse, UniProt P47873 22-199); test: as above
T2 construct: Bought protein; biotinylated where captured on streptavidin plates; also called mIL-11; mIL11
T2 sequence: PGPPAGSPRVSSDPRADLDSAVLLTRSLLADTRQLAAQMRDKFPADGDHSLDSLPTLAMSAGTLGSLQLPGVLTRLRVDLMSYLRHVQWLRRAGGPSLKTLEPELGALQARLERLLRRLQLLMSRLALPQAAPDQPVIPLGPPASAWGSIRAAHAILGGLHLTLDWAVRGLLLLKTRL

human IL-11 [3] = target: T3, human IL-11 (human, UniProt P20809 22-199); test: SPR (Biacore), 25 C, antibody captured via anti-Fc, IL-11 as analyte, determined in steady state; SPR at 25 C, determined in steady state
T3 construct: Invigate recombinant protein; biotinylated when immobilized in the Di-complex ELISA; also called hIL11; hIL-11
T3 sequence: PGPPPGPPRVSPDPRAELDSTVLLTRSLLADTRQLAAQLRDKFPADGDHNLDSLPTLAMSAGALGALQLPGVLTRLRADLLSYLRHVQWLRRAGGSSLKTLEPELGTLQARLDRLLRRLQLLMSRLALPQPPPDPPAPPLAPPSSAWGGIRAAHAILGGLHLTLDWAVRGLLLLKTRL
Procedure: To assess the binding kinetics and affinity of anti-IL-11 bispecific antibodies as well as their species cross-reactivity profile, binding assays were conducted using surface plasmon resonance (SPR). […] Antibodies were captured either via anti-human Fc IgGs (“Human antibody capture kit”, Order No. BR100839, Cytiva) or via anti-mouse Fc IgGs (“Mouse antibody capture kit, Order No. BR100383, Cytiva) covalently amine coupled to a Series S CM5 sensor chip (Cytiva) depending on the isotype. The amine coupling was carried out according to the manufacturer's instructions using 1-ethyl-3-(3-dimethylaminopropyl) carbodiimide hydrochloride (EDC), N-hydroxysuccinimide (NHS) and ethanolamine HCl, pH 8.5 (“Amine Coupling Kit” BR-1000-50, Cytiva.). Human, mouse, cynomolgus or rat IL-11 was used as analyte at several dilutions within the concentration range from 0.05-200 nM. For binding assays with only one concentration 200 nM IL-11 was used. The sensor surface was regenerated with glycine pH 1.7 after each antigen injection. Obtained sensorgrams were double referenced (subtraction of reference flow cell signal and buffer injection) and were fitted to a 1:1 Langmuir binding model to derive kinetic data using the Biacore T200 Evaluation software or the Biacore Insight software.
If no value is reported, there was either no binding or very low binding and multiphasic binding behavior.

human IL-11 [4] = target: T3, human IL-11; test: SPR (Biacore), 25 C, antibody captured via anti-Fc, IL-11 as analyte; SPR at 25 C

Kd [1]: 5.2 nM
Kd [2]: 12 nM
B1: TPP-18087 (antibody, mouse IgG1, V domains shown)
VH: EVQLLESGGGLVQPGGSLRLSCAASGFTFSHYDMNWLRQAPGKGLEWVGVISYDGSNKFYADFVKGRFTISRDNSKNTLYLQMNSLRAEDTAVYYCARTPGSHFDYWGQGTLVTVSS
VL: QSVLTQPPSASGTPGQRVTISCSGSSSNIGNNAVNWYQQLPGTAPKLLIYYDDLLPSGVPDRFSGSKSGTSASLAISGLRSEDEADYYCSAWDDSLNGVVFGGGTKLTVLG
notes: mIgG1, Lambda

Kd (human IL-11 [3]): 13 nM
B2: TPP-18087 (antibody, mouse IgG1, V domains shown)
VH: EVQLLESGGGLVQPGGSLRLSCAASGFTFSHYDMNWLRQAPGKGLEWVGVISYDGSNKFYADFVKGRFTISRDNSKNTLYLQMNSLRAEDTAVYYCARTPGSHFDYWGQGTLVTVSS
VL: QSVLTQPPSASGTPGQRVTISCSGSSSNIGNNAVNWYQQLPGTAPKLLIYYDDLLPSGVPDRFSGSKSGTSASLAISGLRSEDEADYYCSAWDDSLNGVVFGGGTKLTVLG
notes: mIgG1, Lambda

Kd (human IL-11 [4]): 25 nM
B3: TPP-18068 (antibody, mouse IgG1)
heavy: EVQLLESGGGLVQPGGSLRLSCAASGFTFSSYGMHWVRQAPGKGLEWVSVISYDGSYKYYADSVKGRFTISRDNSKNTLYLQMNSLRAEDTAVYYCAAGVPDYWGQGTLVTVSSAKTTPPSVYPLAPGSAAQTNSMVTLGCLVKGYFPEPVTVTWNSGSLSSGVHTFPAVLQSDLYTLSSSVTVPSSTWPSETVTCNVAHPASSTKVDKKIVPRDCGCKPCICTVPEVSSVFIFPPKPKDVLTITLTPKVTCVVVDISKDDPEVQFSWFVDDVEVHTAQTQPREEQFNSTFRSVSELPIMHQDWLNGKEFKCRVNSAAFPAPIEKTISKTKGRPKAPQVYTIPPPKEQMAKDKVSLTCMITDFFPEDITVEWQWNGQPAENYKNTQPIMDTDGSYFVYSKLNVQKSNWEAGNTFTCSVLHEGLHNHHTEKSLSHSPGK
light: QSVLTQPPSASGTPGQRVTISCTGSSSNIGAGYDVHWYQQLPGTAPKLLIYSNNERPSGVPDRFSGSKSGTSASLAISGLRSEDEADYYCAAWDDSLNGPVFGGGTKLTVLGQPKSSPSVTLFPPSSEELETNKATLVCTITDFYPGVVTVDWKVDGTPVTQGMETTQPSKQSNNKYMASSYLTLTARAWERHSSYSCQVTHEGHTVEKSLSRADCS
notes: mIgG1, Lambda
